In paper PMC3905845, “Intracellular dynamics of archaeal FANCM homologue Hef in response to halted DNA replication” (Nucleic Acids Research, 2013):

Target: the molecule itself
Experiment: AUC; sedimentation velocity (0.9, 1 and 1.6 mg/ml) and sedimentation equilibrium (0.6 or 1 mg/ml) at 20°C in buffer C (2M KCl, 10 mM Hepes, pH 7.0), absorbance at 280 nm; SEDFIT and SEDPHAT

B1: Haloferax volcanii Hef protein (helicase-associated endonuclease fork-structure DNA), full length with a six-histidine tag (natural protein, UniProt D4GYC2 1-858, looked up)
chain: MSASEDVAYVDHPLLAPSFIERRLYQIRLAGTARDGHTLVCLPTGLGKTTVSLLVTAQRLHDVGGKSLFLAPTKPLVQQHADFYREALTVPDDEIVVFTGDVRPDDRAELWQEAQIVIATPQVIENDLIGNRISLRDVTHLTFDECHRASGDYAYVYIAERYHAAAENPLVTGMSASPGGDEEAILEVCENLGIVDVEVMTEEDADVSEYTHDTDVEWNRIQLPDEILEIRDALNEVITDRLEKLKQLGVTKSTKPDISQKKLNRMRAELQRLMNADKSEGYKGMSTHAEVMKLRRAVELVETQSVESVRRYFERQRNAARSSGASKASQRLVAEPKVREAMRKAESFDGLHPKFRKTRILLAETLGIQNGERVIVFTESRDTAEALTEFLSESFSVRRFVGQGDREGSDGMTQNEQQETLDKFRNGEFEVLVSTSVAEEGLDVPEVDLVLFFEPVPTAIRSIQRKGRTGRQADGRVVVLLAEDTRDEAYFWISRRREKTMQNELRDLKGAADDLEAELDPSQRDLSAFAGDDASSAGSAGSSTRNEGVDVASEGDANGASATASSASNGRTATAAATDSDGQSGLADFGPSDEALARADDGDDSHGEDADPADSGDDPASDAEGDEVDDSATVAAAGTDDEDTVEIVVDQRELDSNIARTLSKREDLTTRLETLAVGDYVLSDRVAVERKSVSDFLDTLTGGDRSIFEQIADLTRHYARPLLVIEGRGLYEERNIHPGAIRGALSSVAVDFNVSVLFTEDEDDTAELLATIATREQTDRERTVSVHGGKSAKTLDEQQEYVVSAIADIGPVTARTLLEAFGSVEAVMTANEEDLKEVRGVGQVTAERIREVVGSEYR
notes: Hef helicase/endonuclease of the XPF/MUS81/FANCM family, Haloferax volcanii; full-length protein; predicted monomeric molecular mass 93.95 kDa; hef amplified from plasmid pTA1097 and cloned into pTA963 (PciI-EcoRI); also called HvoHef; Hef holoprotein; source: H. volcanii (native host, strain lacking hef, tryptophan-induced), purified (Ni-NTA agarose, S-200 gel filtration)
stoichiometry N: 2
